In the domain aggregation screens of Martell et al. (2025):

Assay: soluble fraction after stress (log2 fold change); higher = more stays soluble; pooled small domains, quantitative proteomics
Settings: stress: pH 4
How it was run: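 Custom libraries of small protein domains were pooled and exposed to pH 4. High-throughput quantitative proteomics then measured the log2 fold change in the amount of each domain still soluble, with higher values meaning more stayed soluble. This soluble-fraction fold change stands for aggregation propensity.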

Sequence	soluble fraction (log2)
HMRRSLIGPTVRERRRALGITQSRLAAEVGISASYLNLIEGDKRNIGGALLQRIAGALGLALD	0.0185
HMGWVMLVIMSRGASEAQINAVVEKIRAAGLTEHLSKGIERTIIGAIGEERKLEPEVFELLPGVEQALHIV	-0.713
HMEAMITEVKRINYGLISDISKSLDPFKSEGGHIIVDKRTNTFILTDLRANIEKMLWSIEIMD	-0.248
HMSASLPAAVEDPDLPYRVGAKLRHARWGEGLLVGIQREGSDVIATVHFASVGRKRLSLQYAHLEE	-0.785
HMTKLSPKEKSILHIIGDNAGIKSGQIAKRLDIPSPTVKRILSDLVSQNLIEKFGTGPGTNYSI	0.22
HMAGWMPGGTNPAEPGRFAVLMDVDDSDAYKHMFLRWNGHAWEFERTRVLVKMEPSWWMRLPDDPEKP	-0.27
HMTRQPSAKEHAVLTAVKEGLRRDGRAPTVRALADMTGAASTSTVQRRISALIDLGLLRRTDGTLEVVE	0.202
HMEHTPHGVALLRTLMDQYGLKAADLANELGSKSNVSNILNGRRALTVSHIKMLAERFNLPADAFI	-0.137
HMSGKMTVPNVVGKTETEAKSALSAKGFTNVRTETVDSTEAAGTVVKQSLDADSVQDPKTEIVLSVSNG	≥ 0.43
HMGNLASRVAEQLLDKMRGDSLVPGTRLPSEIAMAKHFGVSRTVMREAIARLKADGLLETRRGSGAFVLAT	-0.0652
HMNQYIFVLNEKGARITSFVDNTIPKEELIALAKQDYPNAADYIYSADGDSMLDEFMRGKLYVNGQFVAA	-0.475
HMDATGDPIADRILQALQLGELTRTQVNNVFQRHLAAARISQALNFLRSLKRADMRMEETAGRSGEVWFAI	-0.254
HMRRARVAGKGHFTGEDAMAVYRELEALFGETETLYLPGHRPFEAVLSKLALIGVPEKNTVPYTFAFVET	-1.09
HMNVNSQQINDLEKSIQKFFDKDIKNYLNQNLSNDRMISKNEIDKIILLYYGSDKEPTLDEIKSIFN	-1.19
HMQDLVAVPALTGLTENDAINKAKANNLIAVVSEYKTENSVEPGKVLEQDPESSTEVKKGTIIKLVVS	0.16
HMAFIEIMTEGDADGRGFQYPIPTYSITRDFDWSETENNKLLFEMTAKYGTPYFSNYINSDMEPSDV	-0.913
HMTYFIADLIGLQVYTDSGELLGKVDDIYNSGSADIYVVKDELGKQILLPGIKDVIKQIDVDNEKIIVHLI	-1.62
HMPPALTELLSVRTNASGTIDYLLPDRSAGLRVENGSKYSGMVPDSIYRLVAIYEIKDAKEPSAYIYTI	-0.223
HMPPTSADGIEKYLASGMIRGVGPVYAKKLVSAFGDKVFDIIEAAPHQLQEVEGIGRVRAASILAAWAEQ	-0.0654
HMKTSTGSAMYLTLDLAEKYAGQAFTLVHKKADGTFEYLYATADVDGKVKFGPVYELSPFMLVKGQL	-0.674
HMQSKDDLLDTFRVVKGNAALLNDQNKKLIRSLKVSSFGFTGITDQAAEVKKEMPDVLLEKASIEDILF	-0.595
HMNMANFARIRLILELHDRGMSQDEISRSRHMSRSTITTVLRTARKKGITYAGIRKLDDAALQKLFFPDR	0.22
HMFLDKDTLNQLYRFGIALTGNEQDSQDVLHTAIERFLRNKPQQINQQAAYIRTIMRNYWYDELRKLKTQ	-0.0981
HMGDTISVPAVRTLAYNKAMDILNAEGLKGIVADSVYDNHTAPGTVIEQNPKAGTIVKEGREVFLTIHA	-0.0483
HMADLKVGFVHRAGSVLERELDDVLEALEMYRSALAIDPSHKPSLDALTRISQLADYREQAAEILEPLPR	-1.04

Sequence	soluble fraction (log2)
HMLPLPRFASLDSSEANLRAGPGKDYPILWVYQRKGLPVEIIQEFDTWRRIRDRDGTVGWVQQNLL	-0.568
HMGIKLSDRQMQIVEIVKSQQPITSEQVAERLNLTRAALRSDLSILTMAGILEARPKVGYSLTGR	0.14
HMPEVTMSYSARNQVVSFSKATQYEIVDEFGTVVLRGVGNQATLRYLSRGDYFVNFGAGTEVLKK	0.089
HMYLSNPTYRGDSLVDALTQIGVDASFASRRDLARKNGIENYTGSAKQNLELLQLLREGRLR	-0.173
HMIDTPQELARLLRLLDEQNFEAEILFHKLRPDLLHLWSKEHVTRIAEALDAFDYQMALTLLNASP	-2.15
HMAPSLSEYAYEEIKHAIERGVYPPGAKLITQEIADRLGISRTPVVAAVNRLTAEGYADAVPQHGIFVK	0.0288
HMLPGLGPIERAQFMLQAIPGISPTRSAALIDKFGSIAGIAQASIKDIQTIEGIGKKTATTLYEVLNAG	-0.223
HMKDLQHLVGEKGTTVTPLRPSGIALIKGSRYDVVSEGSFIQQGVAVEVIKVEGRRVVVSPLQED	-0.0748
HMLRVVSTRQAFDIVRGWADAHPQDPEHNKTLDELEELAKKEVWDDWSRTNEIAERLNALLVSIGANVRTA	-0.314
HMAARLMRALIPYAQGGLLAKLHEDGQVLSEEYTGEGIEVKALADEQLFGRLTVQLGEQAVSWQD	-0.205
HMDIGKNIQTIRYANKLTQDQVIAKLNLMGISMSKSTYAKLETNRMNIKVSELVALAKIFHTDINAF	-0.274
HMVINVKEILERIKLVKGFHTQIEIARFLGVSKGTISNWLARNSVDFPLVISKLDGVDLNWLFTGIGMPQ	-0.433
HMAEKEYYYATDALNLRQGPGMEHTVKGEVVLGERVALLGLEGKWAKIQNAQGTTGYVFSAYLAPS	-0.147
HMTQLEVDLFERLITISGVGPRLALAVLSGLEPPDLLRAIQDSDIVRLQGIPGVGKKTAERISLELKDKLS	-0.854
HMLVMTDNVIKAINDLLNYEAAAGIKKKQRYTAYQIYKELSEQGVYHGSRRRMEEVVSKLRVERNQI	-0.249
HMGSLVVVPNLVGQNYDEVKLSTKYSDFEIVQKNTEYSEAPAGQIIKQDPEAGTKVKKHSTINVTVSK	-0.287
HMSDYKSALQEAVQTNKQSIEYVLIKESGPAHNKTFTFEVRIDNISYGVGTAKSKKEAEQIAAKDALDKLV	-0.103
HMNTKDRIKQLAAQRKITIAELERKLHIANGTIGKWDKQNPSIEPLKKLADYFGVTTDYLLGRT	-0.219
HMGSIMIIVLKENAPQQAAEKLMKEIRAKGLQIDVSKGTRKTVLGLVGDTSVIDMEHVQGYDYVDKVLRV	-0.674
HMNVDALVGMPARVTRAFVQGAGEVKLDNGETWTARLSAGVTDAEASVGQTVSVIAVRGAAVEVAPE	0.158
HMQPQLFRVIADDGLNIRSGPGPEYPPVAPMLRKGTQVELLQAGDRWSKVEVVGSTDVEGWVNQRYLQAV	0.0927
HMNMMESNLFAVYDNDDIVKTLRQGAMEIDSLIRLMGKSSAEVLEKLTTMELQGIITRSGNIIALNN	-1.38
HMYSINKTEFGERIKSAREELKMTQTQLAQLLKTSQTTVAKYEHGEQIPRADVLATISKATGKSTDWLLFG	0.11
HMNNLKTKELSKIGYTNDKARSLVISIIPKHFKYHSKSEIIELLTNIKNKPEDYVSDEILGKIAETFMEKI	-1.19
HMNIFAHQIGKLRTERHLSQTDVAKRLYVSRQAVSKWENGDAEPSLDNLIALAKLFNVSLDNLITGQ	0.138

Sequence	soluble fraction (log2)
HMDENDPYEILEIDRLASDDQVKAKYRALIRENHPDVLMAKGVPQEFIDLANRKMAVINAAYDRIEKEREF	-0.616
HMENVVESIYNKMVESITNGQWAAGSKIPTENELAKTYQVSRSSVRQAISRLKALGLLESRQGSGTVIKK	0.178
HMAENMNAALRVSSLINQIGTVNAKAKDRIESARKAYDALSEAQKAYVANLTTLETAETSLSKL	0.146
HMTDLVVGLAGITLEPLRPAGKAEFNGSVVDVVSLGDYIEKSTAIQIVEIEGNRIVVHHGED	-1.09
HMRIASANAIYDELLNKRDDAKLAELKQEDINLYALYILQNGSADERAALENTQGIDVVLKEIINLQNG	-0.416
HMIALKNLREEKRMTQAELSKDLEISPSAIGMYEQGRRVPDVSTLKKISAYFNVSIDYLLGNSTSKDI	-0.0244
HMNSKKRQAILESLRSVTDHPTAEMIYNRLKPEYPDLSLGTVYRNLAMFLEEGQVISVGTVDGQERYDAR	0.34
HMDYTGIPQSLLDLMKKDNIMPMQIQRAVAERNYYPVDTPISNYDPMFIEAKLVGAWDQVLNVISHLDLP	-1.51
HMITLKKRRQEAILEIIEKYDLSTQDELLQKLKDSGFDATQATVSRDIKELRLVKTMGANGQYKYAVT	-0.735
HMETLGADLRALRKSRGLTLLDMAESLGRSVGWLSQVERDLSDPSISDLREIAELLGVPISMLFRH	-1.33
HMNTLLGLSNSFQDNKDLENANSISRRFISYRPRSEAELRIRLLKVFSHEIVLESVAQMYREGLLNDQRF	-1.65
HMTISAQAITPRLEVIKNFVLMEEWDAAQTQLEKLRSFTEIWSLDPLFSAMKKKDGQKISDWITGFIKDNM	-1.69
HMKMATITKRTNPSGAVVYRAQVRVKREGYPPYSESRTFSKKSLATEWAKRREFEIETNPDLLFN	0.0738
HMREPQMVTVNGDKVTHGHAYRSNVNPEDWYFTARINGQQLKPQKMEPADVAAYDKKEIGVPELMQR	-0.0539
HMPSGLFEPIKKSELSIESIDLLKDQIRAFKQADIRITFGFLLDLITKGENPAYVNASKLFEQAWER	-0.241
HMTGKVKWYDADKGFGFVTEDGGRDVYVRKSALPQGVETLKAGQRLEFGIAEGRRGPQALSVR	-0.0382
HMPNFDPSYILDFGDVIQLQLVGQKNQILEIPILRDGSVNLPDIGKIFLSGMSLEEATKIIKDTYSA	-1.28
HMRAERVQITDPYIELHTGPGRGFPIFFVAPREQWISIELRHTDWFKVRAVGGQVGWVQRKQLEST	-0.295
HMSKMTLGENLRLLRREKGLSQEQVAQTLFVARQTISKWENGQAEPGVESLKALAKLYGVSLDRLVGA	-0.324
HMPRYSGMFAAWLHKALARMGKSMSDSARSAFTERVELDYSSANNELQKLSLLVGDRKVITEADVMRAIG	-0.0455
HMSIGKEATPDDIVPNIRVYHATFGYGNVIKTDGVSHDKKAVVNFDSVGEKTLLLKFAKLILPY	-0.754
HMNNNIFVYPNPSINYINIDSDEEIWKLEIIQMSGEKINILPFSKRIDISFLSKGLYILNFNNYYIKFIK	-0.937
HMFGSKDVKRAIEDYAAAMSSQPRALSAPQRKVLIRHLATSGLLQLRGAAKIVADELGISRASVYNALKV	0.193
HMTIFGWQTDETGKWYRNADGTFFEAGWKEIDGAKYYFDENGYVKTGWLELDGKDYYFDEEGRYDSSKVR	-1.69
HMTKRTEPSILQNFDTEIAELIAKNRGISIMDALRIFLASKTHEMLENDEMKLWYFSPLAVFDMWENE	-0.61
